# Assays:
# rat NGF (rat) = rat NGF (rat) (UniProt P25427); test: cell-based or functional assay
# human NGF [1] = target: T1, human NGF (human, UniProt P01138 122-241); test: cell-based or functional assay
# T1 construct: also called hNGF; human nerve growth factor
# human NGF [2] = target: T1, human NGF; test: SPR (BIAcore), Fab over CM5 chip with 100 RU of immobilized human NGF
# human NGF [3] = target: T1, human NGF; test: SPR (BIAcore), Fab over immobilized human NGF
# human NGF [4] = target: T1, human NGF; test: SPR (BIAcore), Fab over immobilized human NGF; remark: listed apart in the source
# human NGF [5] = target: T1, human NGF; test: SPR (BIAcore), human NGF on chip; KD calculated using kon 4e4 M-1s-1
# human NGF [6] = target: T1, human NGF; test: SPR (BIAcore) screening, human NGF on chip; KD calculated using kon 4e4 M-1s-1
# Protocol: Affinities of anti-NGF Fabs and monoclonal antibodies were determined using the BIAcore3000™ surface plasmon resonance (SPR) system (BIAcore, INC, Piscaway N.J.). CM5 chips were activated with N-ethyl-N′-(3-dimethylaminopropyl)-carbodiinide hydrochloride (EDC) and N-hydroxysuccinimide (NHS) according to the supplier's instructions. Human NGF was diluted into 10 mM sodium acetate pH 4.0 and injected over the activated chip at a concentration of 0.005 mg/mL. Using variable flow time across the individual chip channels, two ranges of antigen density were achieved: 100-200 response units (RU) for detailed kinetic studies and 500-600 RU for screening assays. The chip was blocked with ethanolamine. […] HBS-EP buffer (0.01M HEPES, pH 7.4, 0.15 NaCl, 3 mM EDTA, 0.005% Surfactant […]) was used as running buffer for all the BIAcore assays.
# T1 sequence (P01138 122-241 limits assumed): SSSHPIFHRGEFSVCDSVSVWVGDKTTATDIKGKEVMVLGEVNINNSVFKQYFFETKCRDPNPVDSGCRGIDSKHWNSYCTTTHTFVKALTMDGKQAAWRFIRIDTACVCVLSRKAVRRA
# Sequence of rat NGF (rat) (P25427 122-241 limits assumed): as the sequence (P01138 122-241 limits assumed) above, with S3T, I6V, R9M, M37T, D60A, D65E, M92T, G94D, V117A, A120G counted along it
molecule,measurement,setting,value
mouse antibody 911 (Fab),"IC50 (1.5 pM NGF), rat NGF-dependent survival of mouse E13.5 trigeminal neurons",rat NGF (rat),34.6 pM
same,"IC50 (15 pM NGF), rat NGF-dependent survival of mouse E13.5 trigeminal neurons",rat NGF (rat),161 pM
same,"IC50 (in the presence of 1.5 pM NGF), human NGF-dependent survival of mouse E13.5 trigeminal neurons",human NGF [1],63.5 pM
same,"IC50 (in the presence of 15 pM NGF), human NGF-dependent survival of mouse E13.5 trigeminal neurons",human NGF [1],322 pM
same,koff,human NGF [2],8.4e-05 s⁻¹
same,Kd,human NGF [3],10 nM
same,Kd,human NGF [4],3.7 nM
same,koff,human NGF [4],9e-05 s⁻¹
same,kon,human NGF [4],22000 M⁻¹ s⁻¹
"H19-L129 (Fab, V domains shown, Combined clone with matured CDRs H1, H2, L1, L2 and grafted H3 and L3; Fab; human Ck, human IgG2a CH1, his tag; also called H19-L129 Fab; Fab H19-L129) VH: QVQLQESGPGLVKPSETLSLTCTVSGFSLIGYDLNWIRQPPGKGLEWIGIIWGDGTTDYNSAVKSRVTISKDTSKNQFSLKLSSVTAADTAVYYCARGGYYYGTSYYFDYWGQGTLVTVS VL: DIQMTQSPSSLSASVGDRVTITCRASQSISNNLNWYQQKPGKAPKLLIYYTSRFHSGVPSRFSGSGSGTDFTFTISSLQPEDIATYYCQQSKTLPYTFGQGTKLEIKR",Kd,human NGF [5],3.5 nM
"L_S91E; L_K92R; H_Y101W; H_G103A (8L2-6D5 template) (Fab, V domains shown, Human Ck, human IgG2a CH1, his tag) VH: QVQLQESGPGLVKPSETLSLTCTVSGFSLIGYDINWIRQPPGKGLEWIGMIWGDGTTDYNSALKSRVTISKDTSKNQFSLKLSSVTAADTAVYYCARGGYWYATSYYFDYWGQGTLVTVS VL: DIQMTQSPSSLSASVGDRVTITCRASQDISNHLNWYQQKPGKAPKLLIYYISRFHSGVPSRFSGSGSGTDFTFTISSLQPEDIATYYCQQERTLPYTFGQGTKLEIKR",Kd,human NGF [6],25 nM
